Measurements taken from US20240228647A1, “OFATUMUMAB FOR TREATING MULTIPLE SCLEROSIS IN ASIAN PATIENTS” (Novartis AG, priority 2021, published 2024).
Where two headings read alike, the source gives them in different places. Marks after values point to notes of the source that are not given here.

What was measured:
[1] = human, in vivo
[2] = tested on: patients with Relapsing Multiple Sclerosis; details: for COVID-19 outcome / COVID-19 symptoms duration: serious case
[3] = Pharmacokinetics of ofatumumab in patients (ethnic comparison, half-life); details: 2000 mg intravenous infusion, refractory CLL
[4] = tested on: patients with RMS; assay: Annualized relapse rate (ARR), confirmed relapses, Phase III Studies I and II; format: in vivo, human; details: for ARR (number of relapses/patient years) / Adjusted ARR (9559) / Number of relapses (confirmed): FAS; for ARR rate reduction (%): vs teriflunomide
Protocol: Ofatumumab was investigated in 1882 patients with RMS from two identical Phase III randomized, double-blind, double-dummy, active-comparator controlled, parallel-group, multicenter studies of identical design (Study I and Study II). Patients were randomized to receive either ofatumumab, OMB (20 mg s.c injections every 4 weeks, after an initial loading regimen of 3 injections on Day 1, 7, and 14), or teriflunomide, TER (14 mg p.o. once a day) as active comparator. For brevity, the teriflunomide data are not shown hereinafter.
The maximum treatment duration for an individual patient was 30 study months (approximately 2.5 years). The two studies included a total of 71 patients of Asian race (36 patients in ofatumumab and 35 patients in teriflunomide treatment groups). This Example also includes the Asian patients data from oncology studies (Study A and Study B), as supportive data, where required.
ARR was the primary efficacy endpoint in the pivotal Phase III studies. Treatment with ofatumumab and teriflunomide were both associated with relatively low ARRs. in the Asian subgroups, with 4 to 5 confirmed relapses in any of the treatment groups (ARRs of 0.08-0.09) (Table 2).

[5] = tested on: serum IgG and IgM levels; assay: Serum IgG and IgM levels under long-term ofatumumab treatment; format: in vivo, human
Protocol: Serum immunoglobulin (Ig) levels can be determined routinely in clinical practice. In the present application serum Ig levels can preferably be determined by immunoturbidimetry. Preferably a Roche cobas® Analyzer was used, especially module c of the cobas® analyser. In a preferred embodiment Ig levels can be determined by using a cobas® c 311 analyzer. It is further preferred that IgG measurements are carried out as described in the cobas® leaflet “IGG-2 Tina-quant IgG Gen.2”, preferably version 11.0 dated 2016-02 and IgM measurements as described in the leaflet “IGM-2 Tina-quant IgM Gen.2”, preferably version 13.0 dated 2018-11.
Serum samples were preferably kept at 2-8° C. before measurement.
Patients were subjected to a long term treatment. Patients received ofatumumab 20 mg sc injections every 4 weeks (after an initial loading regimen of 20 mg sc doses on weeks 0, 1 and 2).

[6] = patient 5409018, OMB interrupted
[7] = patient 5608014, OMB interrupted
[8] = patient 5800004, drug withdrawn
[9] = patient 5801015, OMB interrupted

## ofatumumab [OMB]
[1]
  Ofatumumab concentrations in Asian subjects and White subjects: Comparable ofatumumab concentrations
  Race as a covariate in the population PK analysis: not found to be a significant covariate
[1]; sc, 20 mg
  Half-life at steady state: approximately 16 days
[2]; non-serious cases (n = 29)
  COVID-19 outcome Ongoing, cases: 0
  COVID-19 outcome Recovered, cases: 29
  COVID-19 outcome Recovering, cases: 0
[2]; of 35 confirmed cases
  Complete recovery from COVID-19, cases: 34
[2]; [6]
  COVID-19 outcome: Complete
  COVID-19 symptoms duration: ~50 days
[2]; [7]
  COVID-19 outcome: Complete
  COVID-19 symptoms duration: 18 days
[2]; [8]
  COVID-19 outcome: Fatal
  COVID-19 symptoms duration: ~30 days
[2]; patient 5800043, OMB continued
  COVID-19 outcome: Complete
  COVID-19 symptoms duration: 11 days
[2]; [9]
  COVID-19 outcome: Complete
  COVID-19 symptoms duration: 15 days
[2]; patient 5806001, OMB continued
  COVID-19 outcome: Complete
  COVID-19 symptoms duration: 10 days
[2]; serious cases (n = 6)
  COVID-19 outcome Fatal, cases: 1
  COVID-19 outcome Recovered, cases: 5
[3]
  PK parameters (Cmax, AUC, T1/2) in Asian vs. White patients: Comparable PK parameters
[4]; Asian (race)
  ARR (number of relapses/patient years): (0.084)
  Adjusted ARR (9559): 0.08 (0.03, 0.24)
  Number of relapses (confirmed): 4/47
  ARR rate reduction (%): 11.8/0.862%
[4]; Rest of World (race)
  ARR (number of relapses/patient years): (0.122)
  Adjusted ARR (9559): 0.12 (0.10, 0.14)
  Number of relapses (confirmed): 181/1490
  ARR rate reduction (%): 53.3/<0.001* %
[4]; overall population
  Reduction of adjusted ARR compared with teriflunomide: 52.6%
[4]; Rest of World (race), listed as ofatumumab
  ARR rate reduction (%): 53.3%
[5]; 20 mg sc every 4 weeks, FIGS. 3 and 4
  IgM levels with longer duration: A reduction in IgM levels
[5]; 20 mg sc every 4 weeks, follow-up of >4 years, FIG. 1
  IgG levels over the long-term follow-up: stable
[5]; 20 mg sc every 4 weeks, longer duration, FIGS. 3 and 4
  IgM levels versus lower limit of normal: levels remained above the lower limit of normal
[5]; after two years (96 weeks), FIG. 6
  Increase of IgG levels: about 3%
